Assay: soluble on expression in E. coli; label from the status in PepcDB or PDB records

Sequence	soluble on expression in E. coli
MGSDKIHHHHHHMEQAATQRLATGIPGLDEICGGGLVPRYAYLVRGGPGTGKTTLGLHFLAAGAANGETTLFISLEETESKIRWNAAQTGINLNQVHILDLSPSSDFFANTQIYDIFSPAEVEREPITRQIVETVQRLQPTRVFLDSITQFRYLTPDTFQFRKQVISFLRFLAEQRTTVVFSAENSAAFPDDDLQYIADGIISLELTNTGRYLTVSKMRGSSFVSGRHAMRLTTQGLQVFPRIIPTPLVAGHAFTLIPSGVPELDELLNGGVERGTITLITGPSGVGKTTLGFQFMKEAASRGERSMVFSFEEEIEIMQQRCEAVNIPVRAMQKQQLLRIEKIEPLQYNPAEFAQHVRYFIEQEQIKVVMIDSVTGYRLCMHGEDLISQLHALSKYLQSRGVTVFLIMDTTDIVGDFKVTEIGASYLGDNIIFLRFLEIEGELRKAIGVLKKRLGDFEKTLREFAISRYGIKVGKPLTNLRGILSGMPTWVDKA	not soluble
MGSDKIHHHHHHMEQIIRIGMDTSKHVFQLHGVNAAEEVVLRKKMRRKEMVAFFERAAPTVVALEACGGSHHWARLLEALGHDVKLIPPQYVKPYVKRGKNDAADAEALCEAVSRPTMRFVRVKTTDNQAALMLVGMRDRLVRNRTQLANAIRGYAAEFGLIAATGTSKVRSLLERIATDETLPELARELFGLHGREYDRLEDEIEKVEARLMAWHRTNECSRRLTRIPGVGPIGALMMVMKTPAPETFRSGRHFAAWLGLTPKDHSTAGRVRLGVITRAGDENLRSVLVAGATAVLRHVREDRGKNASPWLLDMLNRKPPKLVAVALANKIARVAWKLMVTGERYNPNAALSAYGQAA	not soluble
MGSDKIHHHHHHMESLIESNINFSIFFYNPNIHPVKEYLIRKEENIRFAEKHNIPFIDADYDTDNWFARAKGMENEPERGIRCTMCFDMRFERTALYAYENGFSLISSSLGISRWKNMAQINDCGIRAASHYPDIQYWDYNWRKNGGSSRMIEISKREEFYQQEYCGCVYSLRDTNRWRMSNGRDRIKIGVKFYSNAMEND	not soluble
MGSDKIHHHHHHMETITIDEKTLYNLTQPSEVIEELTHLNGNLTLVPNILSEDALLNKSVKEIEKIALEEADKTSPKHVRGKKIRRKGYAKYRFLKGFKIMLKGREDIYKLERISVELPVLYSDKGRVKTQVEERLLREEKVFKALMTVYSVLGGKLNAKLWMLEIQASGDFKYVIVDGKYVKLKGGRGSFSAIGVTEEGKRAVLDITLSVEKDVMSYWRLLVEVWKKYSFVLVVVDGTKALDKISLAELQVRRQGCLVHLKRNATKEEREALNVIFSAESGEIKPETCPRLLSYLSTPKELWRWLKSNNLIESFNSLLERRRFGSFHSPWRILQIARTIANNYNLSVVFHQFY	not soluble
MGSDKIHHHHHHMFAQVHYPESLSGEELDEYLFKGWFRNGQRIFTTNFLNFDQKIYSAVWLRIHLQSIKSIHALDKLAKRNSRFKITIQPASITPEKEALFEQYKTGVDFTASQSLHTLLFGDSTVDIYNTLELLIHDGNKLIGVGYFDTGKDCAAGITSFYDHAYKKNSLGKYIIMQKIKYCIDQQYSYFYPGYFVPNYPAFDYKLSIGTETLEYLSLSKNTWVSIQAFVTNEDPFQVMLKKLKEFQSVCANYGIEQQIYQYSFFEANIIPSLRGLHLFDFPVFVYLFSEQEDVVNPMVVFDVVNQCYHLIECRSIWKADESIQEEGFYSSHLLKMEKHICSALTATEMSTIIMRSIEESSTFR	not soluble
MGSDKIHHHHHHMFDPESLKKLAIEIVKKSIEAVFPDRAVKETLPKLNLDRVILVAVGKAAWRMAKAAYEVLGKKIRKGVVVTKYGHSEGPIDDFEIYEAGHPVPDENTIKTTRRVLELVDQLNENDTVLFLLSGGGSSLFELPLEGVSLEEIQKLTSALLKSGASIEEINTVRKHLSQVKGGRFAERVFPAKVVALVLSDVLGDRLDVIASGPAWPDSSTSEDALKVLEKYGIETSESVKRAILQETPKHLSNVEIHLIGNVQKVCDEAKSLAKEKGFNAEIITTSLDCEAREAGRFIASIMKEVKFKDRPLKKPAALIFGGETVVHVKGNGIGGRNQELALSAAIALEGIEGVILCSAGTDGTDGPTDAAGGIVDGSTAKTLKAMGEDPYQYLKNNDSYNALKKSGALLITGPTGTNVNDLIIGLIV	soluble
MGSDKIHHHHHHMFEAFGDMSLDLLRAFEVAARLRSFTAAAIELGTIQPAVSQQIKRLEEQLATRLFDRIYRGIELTEAGEILFSHVQAGLQSIDSGLIAITEQQQHEVLQVATDFAFAAYWLMPRLHRFHKLNPDVDVSLVTSERTHSMLRADIDVTVLFGDGRFKQGESRWLFSEEVFPVCSPLLIADRQTPLPNDALRDFPLLHLRGDSINNWFDWSGVFRALDIPQAPAPGQLRFDNYTLLIQAAIGGQGIAIGWKHLVDDLLDQGLLCRPIAGAAISGHGYYVVLPQRKRRVQIVQQFMDWLASEQALSGVSLAGRPLPSIAV	not soluble
MGSDKIHHHHHHMFGYVLPLRGELKVKDYEKFKSYYCGLCLSIKKNYGNLPRSVLNYDMTFLAVLLDALEDKKCEFRLNRCIAHPYKKKYAIINNKALDYAAFFNICLVYYKLVDDVNDDKKISSKIKSLLLRGYFKKFPKPFYVYSDYIKSSLTELNKLEKKSNNLTLDEISHPFSDLTAFIISSYADNKPYKDILYNIGYNLGKWIYIMDAYDDLKEDIKLKKFNAINNTMNLDDKPYEDLIKDISPKISFVLSMCGSNCLHNLNLLPLKTNQDILFNILQYGLLDKMNNLNL	not soluble
MGSDKIHHHHHHMFIGFDYGTANCSVAIMRDGHPQLLTMENNSALLPSMLCAPTREAVSEWLYRHHDVPATDEETQALLRRAIRYNREEDIEVGAQSVQFGLASLAHYIDDPQEVWFVKSPKSFLGASGLKPQQVALFEDLVCAMMVHIRHTAHSQLPEAITQAVIGRPINFQGLGGDDANRQAQGILERAAKRAGFQEVVFQYEPVAAGLDYEATLREEKRVLVVDIGGGTTDCSMLLMGPQWRQRADRENSLLGHSGCRVGGNDLDIALAFKNLMPLLGMGGETEKGIALPVLPWWNAVAINDVPAQSDFYSSANGRLLNDLVRNAREADKVALLLKVWRQRLSYRLVRCAEESKIALSGQADVTARLPFISDDLAVAISQQGLEAALDQPLTRILEQVQLALDSAQEKPDVIYLTGGSARSPLIKKALSEQLPGIPVAGGDDFGSVTAGLARWAEVVFR	not soluble
MGSDKIHHHHHHMFLNLIATAGNDRIRDFLVNDWYRSLKENVDLSKTDVLVINYGLTGLPKEVINFPAVERSGLINNTRFINLAIFLENHPEYDQILFCDGGDIIFQSDISHLFEEHRDAFRAVVEQLSPPIDLVVKEEDLVNGKEIKSFLSNKKLFNVGVIIAPREGFLELARTMERRLKNINVWGGDTVIGNYVIYKNPHVELPSKYNFIPSTAREKFYVKDSKFYLENGELIPIVHNAGRYRFLRPVKDFGYGPGKNRVNKFNIWMFRMLFSVSNFLKMK	not soluble
MGSDKIHHHHHHMFLYELFKEQRKLYNFTQEEFYEGIFKKRAASSFEVHNTHDLKVKDLPVLSDRSMMSILEIIHYAKEEFISPYDEDLNSLFDIFQNNTEKENKDYIYKLYKKSIELKEHSIIYWNLYLIIKIQCSEYDSRIVPTDSQDLSELKKMILSKQKFTLYDYKIVTNLSLVFSYKELQPFLSSLFPLDSNAPTVTSEAAYYLLENITTKLVQNRDFESCTEVLNIYNDLLQKFPSYKYKLNYLITYNLVGYFLTNNMDSLNNSIKYVDLLGDLENVELAKLMKDNIYLMISKKNNGSMSKPDTLLTKENNHIKLNEKKITKRLE	not soluble
MGSDKIHHHHHHMFNTAVKILYRSLIELTNHRLSSYLIKGFCESKISKPVIPLFSKHFRLNWDDVDGTAADYGSLSELFIRQINLERRPVSKEAHAVVSPVDGVVQTVGIINPNQTFTVKGKDYSFAELTGCKSADHQYNGGYFVVLYLSPRHYHRFHSPISCRYQKLAELGNRSYPVNQLGLKYGKDVLSKNYRFVYELNSGSRNVLMIPVGAMNINSIVQTNTRTELEIGEELGYFSFGSTVILVFEKDAFQPSAHLAEGQEVQVGELIGYEE	not soluble
MGSDKIHHHHHHMFQRAFLLYNGKAGNGKTDKYLKDVVPRALQSIGELTIIPSKEKGDIESICREREVDLIIVMGGDGTVHECINGLAVSPSPPPLVVLPTGTCNDFARSLRIPLSFVEAGNLLESGTWKRVPLIQANHRCYTNFLGMGIITTASEGTNPELKETFGRFSYFLSALQSLREPSPFSYTITSTKGSMSGQAILLLVMHGQFLGTLPVQLDENAIEQPFVTIYIVKEGGLPFIKDLVKGLVSPAMVNESDHIDRMTCDQCQIETEPVLSIDMDGEIYMKTPVNITTVGKVITVRVPDVNVTSDADHTIGGAQDTP	not soluble
MGSDKIHHHHHHMFQTLDHFLKSWEFEADATQKLLNSLTDESLKQEITSQNWTLGRIAWHTVAAIGIITSNTDLTFQAPAEDYPVPTSAQFIADSYHQASNAFVQALKTQWTDHTLQERINFIGQQMPNGSLLMFLIQHQNHHRGQMTVLMRQAGLTVPGIYGPAKEEWAKFGLEAPKM	not soluble
MGSDKIHHHHHHMFSQNDNINILVIRFKRIGDAILSLPLCHSLKLTFPNSKVDFVLYEDVAPLFEGHPYIDNVITITKEEQKNPFKYIKKVYNVTRKKYDIIIDIMSTPKSELFCMFSRKTPFRIGRYKKKRGFFYNYKMKEKESLNKVDKFLNQLLPPFEEVGFDVKKDYDFKFFAEKKEKEKYKQKMLETGVDFSKPVIAFSIYSRVAHKIYPIDKMKEVVKFLINRYSAQIIFFYSADQKDEIQKIHKEIGDFKNIFSSIETPTIKNLVPFLENCDYYIGNEGGARHLAQGVGIPTLAIFSPSADLKEWLPFPSEKNMGISPIDMLEKNALSLDDFNKMNPEEQFSLIDIETIKEMSDELIEKNKRK	not soluble
MGSDKIHHHHHHMFSYEVIRQFTETEHHLYRYIMDNRDKVMFMRVRELSEVTHVSPASIVRFTRKLGCEGFSEFKVKLKQEATREVKKKTADTVEVLEEFFERTMNRDYDHVLDAAAEIINEADLVVFFGIGTSGILAEYGSRFFSNMKKRTFYIKDPFYPNPGEQFKNKAVMIILSVSGETDQVLEQAQNMQQYGSRIISITNTSHNTLAGLSDVNIPYYVTQEMVDKTNITTQIPVLFLLEAMAKKNYNQEQEE	not soluble
MGSDKIHHHHHHMGDIQYTVRDDLKLFVNSIMVQQSADGNARFRLPLYADGYPGIMFQQSESGFFRFPESKQLSEFFLYGQTLEPISLEVQGTYRFVVFQLYPFASKYLLGIDPKELNDACYDLMQFQYIDMEVYSKQLTAAPDPESLIACMSDGVAALIGLNKPPHNDRIQQAIKQIIETEGRMRISDLSEAVCLSERTLERNFLGEVGLSPKQFAKIIQFQSSLTKLTDANAETLTAIGLDSGFTDQSHFIRVFKQYTGQTPSQYIKNQTR	not soluble
MGSDKIHHHHHHMGFDLDVEKKKENRNIPQANNLKIKVIGVGGAGNNAINRMIEIGIHGVEFVAVNTDLQVLEASNADVKIQIGENITRGLGAGGRPEIGEQAALESEEKIREVLQDTHMVFITAGFGGGTGTGASPVIAKIAKEMGILTVAIVTTPFYFEGPERLKKAIEGLKKLRKHVDTLIKISNNKLMEELPRDVKIKDAFLKADETLHQGVKGISELITKRGYINLDFADIESVMKDAGAAILGIGVGKGEHRAREAAKKAMESKLIEHPVENASSIVFNITAPSNIRMEEVHEAAMIIRQNSSEDADVKFGLIFDDEVPDDEIRVIFIATRFPDEDKILFPEGDIPAIYRYGLEGLL	not soluble
MGSDKIHHHHHHMGKVLFVSGIDTDIGKSVATGYYARYLMQLGYSVITQKMVQTGCCDISSDILIHRKIQGVELADEDRKGETCCYLFDYPCSPYLAACLQNTYIDEKTIEKYTALLAQKYDYVLLEGAGGLMVPYAEGKTTLDYITAHNYPLILVTSGRLGSINHTLLSLEVCAHQNINVDTLIYNLYPPTDKLITQDTQQYFKSYLAKRFPTTKFMLMQKIDF	not soluble

Source: the DeepSol protein solubility set
